Experiments:
[1] = target: 14-3-3β (Homo sapiens) (UniProt P31946); conditions: cited from earlier work
[2] = target: the molecule itself; assay: mass photometry

ExoS ART domain, sequence (G3XDA1 233-453): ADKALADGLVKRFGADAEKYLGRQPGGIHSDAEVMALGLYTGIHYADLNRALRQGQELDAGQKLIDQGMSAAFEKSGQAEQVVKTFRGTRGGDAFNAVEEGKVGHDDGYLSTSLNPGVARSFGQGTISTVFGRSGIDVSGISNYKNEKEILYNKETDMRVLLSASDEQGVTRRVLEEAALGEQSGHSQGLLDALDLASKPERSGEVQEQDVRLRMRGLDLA
14-3-3β (Homo sapiens), sequence (P31946 2-246): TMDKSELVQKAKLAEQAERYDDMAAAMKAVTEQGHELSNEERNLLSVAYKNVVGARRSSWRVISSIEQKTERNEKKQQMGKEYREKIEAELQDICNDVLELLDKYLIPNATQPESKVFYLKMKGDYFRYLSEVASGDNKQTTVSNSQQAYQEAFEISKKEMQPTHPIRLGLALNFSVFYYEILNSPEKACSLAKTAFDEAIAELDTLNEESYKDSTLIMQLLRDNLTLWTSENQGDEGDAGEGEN

Molecule | Kd [1] [nM] | stoichiometry N [2]
ExoS ART domain (from UniProt G3XDA1) | 40 | –
human 14-3-3β, individually expressed, with affinity tag (natural protein, also called purified 14-3-3β) MTMDKSELVQKAKLAEQAERYDDMAAAMKAVTEQGHELSNEERNLLSVAYKNVVGARRSSWRVISSIEQKTERNEKKQQMGKEYREKIEAELQDICNDVLELLDKYLIPNATQPESKVFYLKMKGDYFRYLSEVASGDNKQTTVSNSQQAYQEAFEISKKEMQPTHPIRLGLALNFSVFYYEILNSPEKACSLAKTAFDEAIAELDTLNEESYKDSTLIMQLLRDNLTLWTSENQGDEG | – | 2
human 14-3-3β, un-tagged, co-expressed with the exotoxin ART domains (natural protein) MTMDKSELVQKAKLAEQAERYDDMAAAMKAVTEQGHELSNEERNLLSVAYKNVVGARRSSWRVISSIEQKTERNEKKQQMGKEYREKIEAELQDICNDVLELLDKYLIPNATQPESKVFYLKMKGDYFRYLSEVASGDNKQTTVSNSQQAYQEAFEISKKEMQPTHPIRLGLALNFSVFYYEILNSPEKACSLAKTAFDEAIAELDTLNEESYKDSTLIMQLLRDNLTLWTSENQGDEG | – | 2

— publication PMC9787417 (Pathogens, 2022)
